Positions count from the first letter of the chain named. In names and notes the source's numbering stands.
Experiments:
[1] = target: T1, human PD-1 expressed on cells (human, UniProt Q15116 25-288); assay: cell-based or functional assay
[2] = target: T1, human PD-1 expressed on cells; assay: flow cytometry competition: blockade of human PD-L1-hFc binding to CHO-K1 cells expressing human PD-1; PE goat anti-human IgG
Method: (§1) Ligand competition assays were performed on human PD-1 over-expressing CHO cells. A Nanobody dilution series was prepared in assay buffer: PBS/10% FBS/0.05% sodium azide. […] 2×10⁴ cells/well were seeded in V-bottom 96-well plates and resuspended in 200 μL/well of the Nanobody/ligand dilution. After 90 minutes incubation at 4° C., the cells were washed with 100 μL/well assay buffer and resuspended in 100 μL/well PE-labeled Goat anti-human IgG (Southern Biotech, 2043-09). Samples were incubated for 30 minutes at 4° C., washed, and resuspended in 100 μL/well of 5 nM TOPRO3 (LifeTechnologies, T3606) solution before analysis on FACS CANTO II (BD).

[3] = target: T1, human PD-1 expressed on cells; assay: flow cytometry competition: blockade of human PD-L2-hFc binding to CHO-K1 cells expressing human PD-1; PE goat anti-human IgG
Method: as §1

[4] = target: T1, human PD-1 expressed on cells; assay: flow cytometry on CHO-K1 cells expressing human PD-1; anti-FLAG + PE goat anti-mouse
Method: (§2) Binding to cell-expressed human PD-1 was evaluated on human PD-1 over-expressing CHO cells. A Nanobody dilution series was prepared in assay buffer: PBS/10% FBS/0.05% sodium azide. 1×10⁵ cells/well were transferred to a 96-well V-bottom plate and resuspended in 100 μL Nanobody dilution. After 30 minutes incubation at 4° C., the cells were washed with 100 μL/well assay buffer and resuspended in 100 μL/well of 1 μg/ml anti-FLAG (Sigma, F1804) or anti-HIS (AbD Serotec, MCA 1396). […] Samples were incubated for 30 minutes at 4° C., washed, and resuspended in 100 μL/well of 5 nM TOPRO3 (LifeTechnologies, T3606) solution before analysis on FACS CANTO II (BD).

human PD-1-hFc [5] = target: T2, human PD-1-hFc (human, UniProt Q15116 25-170); assay: SPR, Biacore T100; hPD-1-hFc immobilised on CM5 (303 RU), Nanobody as analyte; Langmuir with mass transport
T2 construct: also called hPD-1-hFc; hPD1-hFc; not shown: human Fc
T2 sequence (Q15116 25-170 limits assumed): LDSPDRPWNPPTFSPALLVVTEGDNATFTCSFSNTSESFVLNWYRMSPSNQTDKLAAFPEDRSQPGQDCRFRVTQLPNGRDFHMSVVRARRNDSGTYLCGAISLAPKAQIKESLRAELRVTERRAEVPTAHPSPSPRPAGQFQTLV
Method: (§3) Kinetic analysis of the Nanobodies was performed by SPR technology, using the Biacore T100 instrument (GE Healthcare). HBS-EP+(0.01 M HEPES pH 7.4, 0.15 M NaCl, 3 mM EDTA, 0.05% v/v Surfactant P20) was used as running buffer and the experiments were performed at 25° C. Two flow channels of a Series S Sensor Chip CM5 were activated with EDC (200 mM)/NHS (50 mM). hPD-1-hFc was injected (4 times) at 5 μg/ml in suitable immobilization buffer (10 mM sodium acetate pH4.5) over one surface to render immobilization levels of 303 RU. After immobilization, surfaces were deactivated with 1M ethanolamine/HCl (pH 8.5). The flow rate during the sensor preparation was set on 5 μl/min.
(§4) After each cycle (i.e. before a new Nanobody injection step) the hPD1-hFc surfaces were regenerated with a 1 minute injection 10 mM Glycine pH1.5 at 45 μl/min. Sensorgram processing and data analysis was performed with Biacore T100 Evaluation Software Version 2.0.4 (GE Healthcare). Sensorgrams showing Nanobody binding were obtained after double referencing by subtracting 1) non-specific binding to reference flow channel and 2) HBS-EP+injection. Processed curves were evaluated via fitting with the model ‘Langmuir with Mass Transport’.

human PD-1-hFc [6] = target: T2, human PD-1-hFc; assay: SPR, Biacore T100; hPD-1-hFc immobilised on CM5, Nanobody as analyte; Langmuir with mass transport
Method: as §3, §4

[7] = target: T3, human LAG-3 expressed on cells (human, UniProt P18627 23-525); assay: flow cytometry on 3A9 cells expressing human LAG-3; anti-FLAG + PE goat anti-mouse
T3 construct: the transgene used on the cells is not tied to it by number; also called hLAG-3; 3A9.hLAG-3
T3 sequence: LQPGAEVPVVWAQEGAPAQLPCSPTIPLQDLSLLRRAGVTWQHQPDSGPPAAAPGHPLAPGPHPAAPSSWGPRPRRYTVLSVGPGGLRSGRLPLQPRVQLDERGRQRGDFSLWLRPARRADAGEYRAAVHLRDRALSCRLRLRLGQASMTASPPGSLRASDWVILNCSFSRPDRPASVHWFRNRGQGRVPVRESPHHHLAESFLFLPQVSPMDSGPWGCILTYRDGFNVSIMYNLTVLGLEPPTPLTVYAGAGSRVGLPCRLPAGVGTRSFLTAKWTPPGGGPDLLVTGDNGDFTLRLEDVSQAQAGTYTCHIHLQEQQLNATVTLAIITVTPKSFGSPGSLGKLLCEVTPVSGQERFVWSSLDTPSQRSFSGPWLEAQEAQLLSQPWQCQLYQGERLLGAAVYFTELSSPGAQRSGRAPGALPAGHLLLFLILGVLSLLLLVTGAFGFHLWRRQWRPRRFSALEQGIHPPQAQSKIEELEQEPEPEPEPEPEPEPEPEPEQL
Method: as §2, with “LAG-3” for “PD-1”, “3A9” for “CHO”, “F1804).” for “F1804) or anti-HIS (AbD Serotec, MCA 1396).”

human LAG-3-hFc [8] = target: T4, human LAG-3-hFc (human, UniProt P18627 23-450); assay: SPR, Biacore T100; human LAG3-hFc captured on anti-human IgG(Fc), Nanobody as analyte; Langmuir with mass transport
T4 construct: also called human LAG3-Fc; Human LAG-3-Fc; not shown: human Fc
T4 sequence: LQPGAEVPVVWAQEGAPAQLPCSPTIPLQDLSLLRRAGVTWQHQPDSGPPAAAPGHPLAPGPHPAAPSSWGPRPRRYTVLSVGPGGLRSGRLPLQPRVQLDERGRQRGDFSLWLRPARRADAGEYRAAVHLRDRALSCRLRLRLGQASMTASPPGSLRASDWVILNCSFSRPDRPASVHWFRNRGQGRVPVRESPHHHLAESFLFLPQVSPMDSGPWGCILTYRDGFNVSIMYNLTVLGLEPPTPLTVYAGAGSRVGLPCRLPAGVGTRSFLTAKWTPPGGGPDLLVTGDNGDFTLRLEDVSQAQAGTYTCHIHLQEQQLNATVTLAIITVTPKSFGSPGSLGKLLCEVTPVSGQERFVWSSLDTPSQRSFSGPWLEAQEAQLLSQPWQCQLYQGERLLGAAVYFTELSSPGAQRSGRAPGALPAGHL
Method: Kinetic analysis of Nanobodies was performed by surface plasmon resonance (SPR) technology, using the Biacore T100 instrument (GE Healthcare). HBS-EP+(0.01 M HEPES pH 7.4, 0.15 M NaCl, 3 mM EDTA, 0.05% v/v Surfactant P20) was used as running buffer and the experiments were performed at 25° C. Two flow channels of a Series S Sensor Chip CM5 were activated with EDC (200 mM)/NHS (50 mM) and anti-Human IgG(Fc) (GE Healthcare, BR100839) was injected at 5 μg/ml in the supplied immobilization buffer (10 mM sodium acetate pH5.0) to render immobilization levels of approximately 2000 R U. After immobilization, surfaces were deactivated with 1M ethanolamine/HCl (pH 8.5). The flow rate during the sensor preparation was set on 5 μL/min.
Sensorgram processing and data analysis was performed with Biacore T100 Evaluation Software Version 2.0.4 (GE Healthcare). […] Processed curves were evaluated via fitting with the model ‘Langmuir with Mass Transport’.

human LAG-3-hFc [9] = target: T4, human LAG-3-hFc; assay: flow cytometry competition: blockade of 40 nM human LAG-3-hFc binding to MHC class II on Daudi cells; PE goat anti-human IgG
Method: A Nanobody dilution series was prepared in assay buffer: HBSS/2% FBS. Prior to the experiment, Fc receptors on the Daudi cells were blocked with human Fc block (BD Pharmingen, 564220) and 5 μg/mL goat IgG (Jackson ImmunoResearch, 005-000-003) for 30 minutes at 4° C. […] 1×10⁵ cells/well were seeded in V-bottom 96-well plates and resuspended in 100 μL/well of the Nanobody/ligand dilution. After 30 minutes incubation at 4° C., the cells were washed and resuspended in 100 μL/well PE-labeled Goat anti-human IgG (Southern Biotech, 2043-09). Samples were incubated for 15 minutes at 4° C., washed, and resuspended in 100 μL/well of 5 nM TOPRO3 (LifeTechnologies, T3606) solution before analysis on FACS CANTO II (BD).

T1 sequence (Q15116 25-288 limits assumed): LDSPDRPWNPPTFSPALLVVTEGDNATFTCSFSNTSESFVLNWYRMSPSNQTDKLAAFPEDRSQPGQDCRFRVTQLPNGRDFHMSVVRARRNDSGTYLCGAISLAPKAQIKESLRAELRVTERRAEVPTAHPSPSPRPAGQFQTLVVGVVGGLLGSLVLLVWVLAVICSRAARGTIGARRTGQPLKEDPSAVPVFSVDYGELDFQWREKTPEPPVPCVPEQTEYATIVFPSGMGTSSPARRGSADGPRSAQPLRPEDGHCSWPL

B1: F023700706 (1PD102C12 (L11V, A14P, A74S, K83R, I89L)-FLAG3-HIS6) (VHH)
VHH: EVQLVESGGGVVQPGGSLRLSCAASGSIASIHAMGWFRQAPGKEREFVAVITWSGGITYYADSVKGRFTISRDNSKNTVYLQMNSLRPEDTALYYCAGDKHQSSWYDYWGQGTLVTVSS
notes: also called SO 1PD102C12 monomer
EC50 (read off the curve), IL-2 promoter luciferase RLU [1]: ~0.9 nM | IC50 (read off the curve) [2]: ~0.6 nM | IC50 (read off the curve) [3]: ~0.6 nM | EC50 (read off the curve) [4]: ~0.9 nM

B2: F023701190 (1PD102C12 (E1D, L11V, A14P, W52aV, A74S, K83R, I89L, W100aF)-HIS6) (VHH)
VHH: B1 VHH with E1D, W53V, W105F
notes: monovalent anti-human PD-1 Nanobody variant; also called Enhanced SO 1PD102C12 monomer; not shown: C-terminal HIS6 tag
IC50 (read off the curve) [2]: ~1 nM | IC50 (read off the curve) [3]: ~0.9 nM

B3: F023701192 (1PD102C12 (E1D, L11V, A14P, W52aV, N73Q, A74S, K83R, I89L, W100aF)-HIS6) (VHH)
VHH: B1 VHH with E1D, W53V, N74Q, W105F
notes: monovalent anti-human PD-1 Nanobody variant; not shown: C-terminal HIS6 tag
Kd (human PD-1-hFc [5]): 1.3 nM | koff (human PD-1-hFc [5]): 0.0032 s⁻¹ | kon (human PD-1-hFc [5]): 2.5e+06 M⁻¹ s⁻¹ | IC50 (read off the curve) [2]: ~1 nM | Kd (human PD-1-hFc [6]): 1.3 nM | koff (human PD-1-hFc [6]): 0.0032 s⁻¹ | kon (human PD-1-hFc [6]): 2.5e+06 M⁻¹ s⁻¹ | IC50 (read off the curve) [3]: ~0.9 nM

B4: F023701193 (1PD102C12 (E1D, L11V, A14P, W52aV, N73P, A74S, K83R, I89L, W100aF)-HIS6) (VHH)
VHH: B1 VHH with E1D, W53V, N74P, W105F
notes: as for B3
Kd (human PD-1-hFc [5]): 2.4 nM | koff (human PD-1-hFc [5]): 0.0075 s⁻¹ | kon (human PD-1-hFc [5]): 3.2e+06 M⁻¹ s⁻¹ | IC50 (read off the curve) [2]: ~1 nM | Kd (human PD-1-hFc [6]): 2.4 nM | koff (human PD-1-hFc [6]): 0.0075 s⁻¹ | kon (human PD-1-hFc [6]): 3.2e+06 M⁻¹ s⁻¹ | IC50 (read off the curve) [3]: ~0.9 nM

B5: F023700275 (1PD102C12(A14P, A74S, K83R)-FLAG3-HIS6) (VHH)
VHH: B1 VHH with V11L, L93I
notes: monovalent anti-human PD-1 Nanobody, parent of F023700706
IC50 (read off the curve) [2]: ~0.3 nM | IC50 (read off the curve) [3]: ~0.3 nM | EC50 (read off the curve) [4]: ~0.9 nM

B6: F023700929 (1PD102C12 (L11V, A14P, A74S, K83R, I89L)-HIS6) (VHH)
VHH: B1 VHH
notes: not shown: C-terminal HIS6 tag
Kd (human PD-1-hFc [5]): 0.29 nM | koff (human PD-1-hFc [5]): 0.00059 s⁻¹ | kon (human PD-1-hFc [5]): 2e+06 M⁻¹ s⁻¹ | IC50 (read off the curve) [2]: ~1 nM | Kd (human PD-1-hFc [6]): 0.29 nM | koff (human PD-1-hFc [6]): 0.00059 s⁻¹ | kon (human PD-1-hFc [6]): 2e+06 M⁻¹ s⁻¹ | IC50 (read off the curve) [3]: ~1 nM

B7: F023700842 (F0237611B09(L11V, A14P, R41P, N43K, A62S, A74S, K83R, V89L)-FLAG3-HIS6) (VHH)
VHH: EVQLVESGGGVVQPGGSLRLSCAASGRTFSDYVMGWFRQAPGKEREFVAAISESGGRTHYADSVKGRFTISRDNSKNTLYLQMNSLRPEDTALYYCATTLLWWTSEYAPIKANDYDYWGQGTLVTVSS
notes: also called F023700842-FLAG3-HIS6
EC50 (read off the curve) [7]: ~2 nM | Kd (human LAG-3-hFc [8]): 21 nM | koff (human LAG-3-hFc [8]): 0.019 s⁻¹ | kon (human LAG-3-hFc [8]): 920000 M⁻¹ s⁻¹ | IC50 (read off the curve) (human LAG-3-hFc [9]): ~30 nM

B8: F0237611B09-FLAG3-HIS6 (VHH)
VHH: B7 VHH with V11L, P14A, P41R, K43N, S63A, S75A, R87K, L93V
notes: original monovalent anti-human LAG-3 Nanobody; also called F0237611B09-FLAG-His6
EC50 (read off the curve) [7]: ~2 nM | IC50 (read off the curve) (human LAG-3-hFc [9]): ~20 nM
